Laboratory results taken from article PMC10244698, “Polypyrimidine tract binding protein 1 (PTBP1) contains a novel regulatory sequence, the rBH3, that binds the prosurvival protein MCL1” (The Journal of Biological Chemistry, 2023).
Values belong to the binder of their own block, whether it stands above or below them. Ends that are not written are not given here. * marks the point of attachment. FITC = O=C1OC2(c3ccc(O)cc3Oc3cc(O)ccc32)c2ccc(NC(=S)*)cc21; Ahx = NCCCCCC(=O)O

B2: myeloid cell leukemia-1 (MCL1), residues 163-326 (domain or fragment, human, UniProt Q07820 163-326, looked up)
chain: TPPPAEEEEDELYRQSLEIISRYLREQATGAKDTKPMGRSGATSRKALETLRRVGDGVQRNHETAFQGMLRKLDIKNEDDVKSLSRVMIHVFSDGVTNWGRIVTLISFGAFVAKHLKTINQESCIEPLAESITDVLVRTKRDWLVKQRGWDGFVEFFHVEDLEG
notes: human MCL1, UniProt Q07820, residues 163-326, cloned into pET28a; also called recombinant MCL1; source: E. coli BL21 (DE3), purified (nickel chromatography, gel filtration)
B4: RNA recognition motif 1 (RRM1) of polypyrimidine tract binding protein 1 (PTBP1), residues 55-147 (domain or fragment, human, UniProt P26599 55-147, looked up)
chain: GVPSRVIHIRKLPIDVTEGEVISLGLPFGKVTNLLMLKGKNQAFIEMNTEEAANTMVNYYTSVTPVLRGQPIYIQFSNHKELKTDSSPNQARA
notes: human PTBP1 RRM1, UniProt P26599, residues 55-147, cloned into pET28a; 15N-labelled for the NMR experiment; also called PTBP1-RRM1; recombinant wildtype RRM1 protein; source: E. coli BL21 (DE3), purified (nickel chromatography, gel filtration)

Columns and labels:
[1] = biological target: B2; assay: fluorescence polarisation; competitive FPA: 100 nM MCL1, 10 nM FITC-BAK BH3 peptide, unlabeled RRM1 titrated; 1x PBS pH 7.4, 0.1% DMSO; conditions: both partners purified
[2] = biological target: B4; assay: fluorescence polarisation; competitive FPA: 50 nM RRM1, 0.5 nM FTSC-labeled RNA from the 3'UTR of MCL1 mRNA, MCL1 titrated; 1x PBS pH 7.4, 1% DMSO, background of tRNA; conditions: both partners purified
[3] = biological target: B2; assay: fluorescence polarisation; direct FPA: 10 nM FITC-RRM1_(rBH3) peptide, recombinant MCL1 titrated; 1x PBS pH 7.4, 1% DMSO; conditions: both partners purified
PTBP1 RRM1 = PTBP1 RRM1 (human, UniProt P26599 55-147); assay: fluorescence polarization; tRNA background; 0.5 nM RNA; FP: 1x PBS pH 7.4, 1% DMSO, tRNA background, temperature not stated; EMSA: 10 mM Hepes pH 7.3, 20 mM KCl, 1 mM MgCl2, 1 mM DTT, tRNA (10 ug/ml in Methods, 10 ug/uL in Fig S2 legend), room temperature, 1% TBE agarose; conditions: protein: recombinant; tags: N-terminal His6 (pET28a); label: 3' FTSC (fluorescein-5-thiosemicarbazide); single-stranded, designed as unstructured

- binding result [1]: binds
B1: FITC-labeled BAK peptide derived from its BH3 sequence (peptide)
peptide: {FITC-Ahx}-GQVGRQLAIIGDDINRRYD
notes: also called F-BAKBH3; FITC-BAK; source: synthetic peptide

Binder: B2
- IC50 [2]: 74.6 ± 37.3 nM

- Kd [3]: < 10 nM
B3: FITC-labeled peptide containing the RRM1 rBH3 sequence (peptide)
peptide: {FITC-Ahx}-NTEEAANTMVNYYTSVTPVLRGQ
notes: stretch of PTBP1 RRM1 with the rBH3 motif (E104-Y114) on the alpha2 helix; also called F-RRM1_(rBH3); FITC-RRM1_(rBH3); source: synthetic peptide (GenScript)

Binder: B4
- IC50 [1]: 88 ± 3 nM

Binder: ACGCUUCUCUCAGGGAAAAACAUGC (ssRNA) [MCL1 3'UTR 25-mer RNA]
- Kd (PTBP1 RRM1): 16.1 ± 7.6 nM
